Assay results as given in patent US20260097076A1 (ELPIS BIOPHARMACEUTICALS, published 2026).
Substitutions are numbered along the chain they refer to. Names and notes keep the numbering of the source.

T1: B Cell Maturation Antigen (BCMA) on cells (UniProt Q02223 1-184, limits assumed)
T1 construct: whole, on cells; One molecule is used for the recombinant (CHOK1) and the endogenous (myeloma lines) cell-surface BCMA; also called tumor necrosis factor receptor superfamily member 17 (TNFRSF17); CD269
T1 sequence (looked up): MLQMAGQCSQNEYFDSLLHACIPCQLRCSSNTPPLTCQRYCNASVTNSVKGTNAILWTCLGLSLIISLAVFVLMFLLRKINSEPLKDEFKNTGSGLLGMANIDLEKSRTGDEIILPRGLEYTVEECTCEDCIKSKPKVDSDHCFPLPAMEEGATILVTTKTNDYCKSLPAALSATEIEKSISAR

T2: Human BCMA-Fc (human, UniProt Q02223 1-54)
T2 construct: also called human BCMA-Fc protein; recombinant BCMA-Fc fusion protein; not shown: Fc part (captured by anti-human Fc antibody or Protein A)
T2 sequence (looked up): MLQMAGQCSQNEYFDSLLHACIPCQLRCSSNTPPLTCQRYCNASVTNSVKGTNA

B1: BC-06 (anti-BCMA antibody in scFv format) (scFv)
scFv: EVQLVESGGGLVQPGRSLRLSCAASGFTFDDYAMHWVRQAPGKGLEWVSGISWNSGSIGYADSVKGRFTISRDNAKNSLYLQMNSLRAEDTALYYCAKVQPPGAFDIWGQGTMVTVSSGGGGSGGGGSGGGGSDIQLTQSPSFLSASVGDRVSITCRSTQGISSYLGWYQQKPGKAPKLLIYATSTLQSGVPSRFSGSGSGTEFTLTISSLQPEDFATYYCQQLYSFGQGTKLEIK
notes: Human scFv from mRNA display, VH-(G4S)3-VL, expressed in E. coli periplasm, His-purified; also called clone BC-06; not shown: C-terminal flag and 6xHis tag
B2: BC-07 (anti-BCMA antibody in scFv format) (scFv)
scFv: B1 scFv with P101S
notes: Human scFv from mRNA display, VH-(G4S)3-VL, expressed in E. coli periplasm, His-purified; not shown: C-terminal flag and 6xHis tag
B3: BC-01 (anti-BCMA antibody in scFv format) (scFv)
scFv: EVQLVQSGGGVVQPGGSLRLSCAASGFTFSSYGMHWVRQAPGKGLEWVAFIRYDGSNKYYADSVKGRFTISRDNSKNTLYLQMNSLRAEDTAVYYCAKDLWDGIVGAPAGYWGQGTLVTVSSGGGGSGGGGSGGGGSDVVMTQSPSSLSASVGDRVTITCQASQDISNYLNWYQQKPGKAPKLLIYDASNLETGVPSRFSGSGSGTDFTFTISSLQPEDIATYYCQQYDNLPLTFGGGTKVEIK
notes: as for B2
B4: BC-09 (anti-BCMA antibody in scFv format) (scFv)
scFv: QVQLVQSGGGVVQPGGSLRLSCAASGFTFSSYGMHWVRQAPGKGLEWVAFIRYDGSNKYYADSVKGRFTISRDNSKNTLYLQMNSLRAEDTAVYYCAKDLWEFGGDYADYWGQGTLVTVSSGGGGSGGGGSGGGGSNIQMTQSPSSLSASVGDRVTITCQASQDISNYLNWYQQKPGKAPKLLIYDASNLETGVPSRFSGSGSGTDFTFTISSLQPEDIATYYCQQYDNLPLTFGGGTKVEIK
notes: as for B2
B5: BC-05 (anti-BCMA antibody in scFv format) (scFv)
scFv: QMQLVQSGGGVVQPGGSLRLSCAASGFTFSSYGMHWVRQAPGKGLEWVAFIRYDGSNKYYADSVKGRFTISRDNSKNTLYLQMNSLRAEDTAVYYCAKDWEDPLYYYDTPFWGQGTLVTVSSGGGGSGGGGSGGGGSVIWMTQSPSSVSASVGDIITITCQASQDINNYLNWYQLKPGKAPKLLIYDASNVETGVPSRFSGSGSGTDFTFTISSLQPEDTATYYCQQYDKLPYTFGQGTKLEIK
notes: as for B2
B6: BC-08 (anti-BCMA antibody in scFv format) (scFv)
scFv: QVQLVQSGGGVVQPGRSLRLSCAASGFTFSSYAMHWVRQAPGKGLEWVAVISYDGSNKYYADSVKGRFTISRDNAENSVYLQMNSLRAEDTAVYYCARDEHQVVPNYRFDFWGQGSQVTVSSGGGGSGGGGSGGGGSQLVLTQPPSASGTPGQRVTISCSGSGSNIGSNDVSWYQQIPGTASKLLIYWNDQRPSGVPDRFSGSKSGTSASLAISGLQSEDEADYYCAAWDDSLNGWVFGGGTKLTVL
notes: as for B2
B7: BC-02 (anti-BCMA antibody in scFv format) (scFv)
scFv: QVQLVQSGGGVVQPGGSLRLSCAASGFTFSSYGMHWVRQAPGKVLEWVAFIRYDGSNKYYADSVKGRFTISRDNSKNTLYLQMNSLRAEDTAVYYCAKDWDYYDSSGYYPDALGIWGQGTMVTVSSGGGGSGGGGSGGGGSEIVLTQSPSSLSASVGDRVTITCQASQDISNYLNWYQQKPGKAPKLLIYDASNLETGVPSRFSGSGSGTDFTFTISSLQPEDIATYYCQQYDNLPFTFGPGTKVDIK
notes: as for B2
B8: BC-03 (anti-BCMA antibody in scFv format) (scFv)
scFv: QMQLVQSGGGVVQPGGSLRLSCAASGFTFSSYGMHWVRQAPGKGLEWVAFIRYDGSDKYYADSVKGRFTISRDNSKNTLYLQMNSLRAEDTAVYYCAKDLTTITPGYWGQGTLVTVSSGGGGSGGGGSGGGGSVIQMTQSPSSLSASVGDRVTITCQASQDISNYLNWYQQKPGKAPKLLIYDASNLETGVPSRFSGSGSGTDFTFTISSLQPEDIATYYCQQYDNLPLTFGGGTKVEIK
notes: as for B2

These binders were tested against T1, B Cell Maturation Antigen (BCMA) on … (assay: flow cytometry, serial diluted scFv on BCMA/CHOK1 cells).
Description: Cells were spun down at 1200 rpm for 6 minutes at 4° C. to remove primary antibodies. Cells were then washed once with 200 μL of full medium per well. Samples were detected with premixed anti-His Biotin Streptavidin Alexa fluor 647 by adding 100 μL of diluted secondary antibody and incubated at 4° C. for 30 minutes in the dark. Samples were spun down at 1200 rpm for 5 minutes at 4° C. and washed twice with 200 μL of 1×PBS per well. Reconstituted samples in 200 μL of 1×PBS and read on Attune NxT cytometer. Analysis was done by Attune NxT software plotting the overlaying the histogram of anti-BCMA scFvs binding onto both negative and target cell lines. […] The BCMA cell binding affinity for exemplary anti-BCMA antibodies (in scFv format) was also generated with serial diluted scFvs as described above.

Which EC50 does the source give for B1 here?
The EC50 was 1.9 nM.

B2 was tested. Which EC50 did it give?
Its EC50 is 13.2 nM.

With B3 as the binder, how does the EC50 read?
The EC50 was 18.9 nM.

With B4 as the binder, how does the EC50 read?
Its EC50 is 5.28 nM.

Which EC50 does the source give for B5 here?
The EC50 was 4.91 nM.

How did the EC50 turn out when B6 was run?
Its EC50 is 1 nM.

For B7, which EC50 is on record?
Its EC50 is 84 nM.

For B8, which EC50 is on record?
Its EC50 is 16.1 nM.

What follows are binders tested against T1, B Cell Maturation Antigen (BCMA) on … (assay: flow cytometry on H929 multiple myeloma cells (endogenous BCMA)).

For B1, which EC50 is on record?
Its EC50 is 2.85 nM.

These binders were tested against T1, B Cell Maturation Antigen (BCMA) on … (assay: flow cytometry on MM1R multiple myeloma cells (endogenous BCMA)).

How did the EC50 turn out when B1 was run?
The EC50 was 0.74 nM.

The binders below were run against T2, Human BCMA-Fc (assay: SPR, Biacore T200, BCMA-Fc captured on Protein A chip, scFv as analyte).
Description: Kinetic analysis of anti-BCMA scFvs have been assessed by SPR technology with Biacore T200. The assay was run with Biacore T200 control software version 2.0. Protein A sensor chip was used to capture Fc fusion protein in the assay. For each cycle, 1 μg/mL of human BCMA-Fc protein was captured for 60 seconds at flow rate of 10 ul/min on flow cell 2 in 1×HBSP buffer on Protein A sensor chip. 2-fold serial diluted HIS tag purified anti-BCMA scFv was injected onto both reference flow cell 1 and BCMA-Fc captured flow cell 2 for 150 seconds at flow rate of 30 ul/min followed by wash for 300 seconds. The flow cells were then regenerated with Glycine pH2 buffer (GE) for 30 seconds at flow rate of 30 ul/mins. 8 concentration points from 300-0 nM was assayed per anti-BCMA scFv in a 96 well plate. The kinetics of scFvs binding to BCMA protein was analyzed with Biacore T200 evaluation software version 3.0. The specific binding response unit was derived from subtraction of binding to reference flow cell 1 from BCMA captured flow cell 2.

B1 was tested. Which Kd did it give?
Its Kd is 7.87 nM.

And the koff?
Its koff is 0.00251 s⁻¹.

And the kon?
The kon was 319000 M⁻¹ s⁻¹.

B2 was tested. Which Kd did it give?
The Kd was 26.2 nM.

What about the koff of the same binder?
Its koff is 0.00592 s⁻¹.

And the kon?
Its kon is 226000 M⁻¹ s⁻¹.

B3 was tested. Which Kd did it give?
Its Kd is 3 nM.

And the koff?
The koff was 0.000431 s⁻¹.

And the kon?
The kon was 144000 M⁻¹ s⁻¹.

For B4, which Kd is on record?
The Kd was 19.6 nM.

What about the koff of the same binder?
Its koff is 0.00407 s⁻¹.

What about the kon of the same binder?
Its kon is 208000 M⁻¹ s⁻¹.

With B5 as the binder, how does the Kd read?
Its Kd is 10.4 nM.

What about the koff of the same binder?
The koff was 0.000646 s⁻¹.

What about the kon of the same binder?
Its kon is 62400 M⁻¹ s⁻¹.

For B6, which Kd is on record?
The Kd was 0.653 nM.

And the koff?
The koff was 0.00116 s⁻¹.

And the kon?
The kon was 1.78e+06 M⁻¹ s⁻¹.

Which results are given for B7?
Kd: 12.9 nM; koff: 0.00118 s⁻¹; kon: 91600 M⁻¹ s⁻¹

What does the source list for B8?
Kd: 11.9 nM; koff: 0.00359 s⁻¹; kon: 302000 M⁻¹ s⁻¹

Each binder was assayed against T2, Human BCMA-Fc (assay: ELISA, human BCMA-Fc captured by anti-human Fc, scFv detected with anti-Flag HRP).
Description: An ELISA assay was developed to determine the EC₅₀ of anti-BCMA antibodies. Briefly, 384 well plate was immobilized with anti-human Fc antibody at final concentration of 2 μg/mL in 1×PBS in total volume of 25 uL per well. The plate was incubated overnight at 4° C. followed by blocking with 80 μL of superblock per well for 1 hour. Human BCMA-Fc was captured through immobilized anti-hFc antibody. Purified anti-BCMA scFvs were 2-fold serial titrated from 200 nM. 25 μL of diluted scFv was added to human BCMA immobilized wells and incubated for 1 hour with shaking. The BCMA binding was detected by adding 25 μL of anti-Flag HRP diluted at 1:5000 in 1×PBST. In between each step, the plate was washed 3 times with 1×PBST in a plate washer. The plate was then developed with 20 μL of TMB substrate for 5 mins and stopped by adding 20 μL of 2 N sulfuric acid. The plate was read at OD450 nm Biotek plate reader and then plotted in Prism 8.1 software.

With B1 as the binder, how does the EC50 read?
The EC50 was 0.62 nM.

Which EC50 does the source give for B2 here?
Its EC50 is 0.802 nM.

B3 was tested. Which EC50 did it give?
The EC50 was 0.938 nM.

B4 was tested. Which EC50 did it give?
Its EC50 is 0.597 nM.

For B5, which EC50 is on record?
The EC50 was 0.536 nM.

How did the EC50 turn out when B6 was run?
The EC50 was 0.299 nM.

How did the EC50 turn out when B7 was run?
Its EC50 is 1.92 nM.

With B8 as the binder, how does the EC50 read?
Its EC50 is 2.32 nM.
